Source: publication PMC4069078

How the values were obtained:
[1] = target: ChiAVD–G42A (chicken | not stated) (UniProt P56734); experiment: dynamic light scattering; 50 mM NaH2PO4/Na2HPO4, 100 mM NaCl, pH 7 at 25°C; volume distribution
[2] = target: ChiAVD–G42F (chicken | not stated) (UniProt P56734); experiment: as above
[3] = target: Chimeric avidin ChiAVD(I117Y) (chicken | not stated) (UniProt P02701); experiment: as above
[4] = target: Chimeric avidin ChiAVD(I117Y) (chicken | not stated) (UniProt P02701); experiment: solution NMR structure; biotin-bound ChiAVD, 13C/15N-labelled, 58°C, 800 MHz; intersubunit NOE peaks identified by inspection of avidin crystal structures and manually assigned; RDCs in bicelles at 40°C

## ChiAVD–G42A (from UniProt P56734 62-82; P02701 85-152)
[1]
  stoichiometry N: 4

## ChiAVD–G42F (from UniProt P56734 62-82; P02701 85-152)
[2]
  stoichiometry N: 4

## Chimeric avidin ChiAVD(I117Y) (from UniProt P02701 85-152)
[3]
  stoichiometry N: 4
[4]
  stoichiometry N: 4
